Reference: patent publication US20080107630

Tested on: gelatin (0.1%, incorporated in a 10% Tris-glycine polyacrylamide gel as substrate)

Substance: human matrix metalloproteinase-8 (recombinant, secreted by A549 cells infected with AdMMP8)
- gelatin hydrolysis in zymogram gel: The gelatin hydrolysis visible in the zymogram gel
